Assays:
[1] = molecular target: Mojiang virus attachment glycoprotein (MojV G), full length, S-tagged (Mojiang virus); experiment: cross-linking
[2] = molecular target: Mojiang virus fusion glycoprotein (MojV F), full length, S-tagged (Mojiang virus); experiment: cross-linking
[3] = molecular target: soluble tetrameric Ghana virus attachment glycoprotein (GhV sG) (Ghana virus); experiment: negative-stain electron microscopy
[4] = molecular target: soluble tetrameric Mojiang virus attachment glycoprotein (MojV sG) (Mojiang virus); experiment: negative-stain electron microscopy
[5] = molecular target: soluble trimeric Cedar virus fusion glycoprotein (CedV sF) (Cedar virus); experiment: negative-stain electron microscopy
[6] = molecular target: soluble trimeric Mojiang virus fusion glycoprotein (MojV sF) (Mojiang virus); experiment: negative-stain electron microscopy
cross-linking = molecular target: the molecule itself; experiment: cross-linking

Mojiang virus attachment glycoprotein (MojV G), full length, S-tagged (natural protein)
stoichiometry N [1]: 4

Mojiang virus fusion glycoprotein (MojV F), full length, S-tagged (natural protein)
stoichiometry N [2]: 3

soluble tetrameric Ghana virus attachment glycoprotein (GhV sG) (domain or fragment)
stoichiometry N [3]: 4

soluble tetrameric Mojiang virus attachment glycoprotein (MojV sG) (domain or fragment)
stoichiometry N [4]: 4

soluble trimeric Cedar virus fusion glycoprotein (CedV sF) (domain or fragment)
stoichiometry N [5]: 3

soluble trimeric Mojiang virus fusion glycoprotein (MojV sF) (domain or fragment)
stoichiometry N [6]: 3

B1: Hendra virus attachment glycoprotein (HeV G), full length, S-tagged (natural protein)
chain: MMADSKLVSLNNNLSGKIKDQGKVIKNYYGTMDIKKINDGLLDSKILGAFNTVIALLGSIIIIVMNIMIIQNYTRTTDNQALIKESLQSVQQQIKALTDKIGTEIGPKVSLIDTSSTITIPANIGLLGSKISQSTSSINENVNDKCKFTLPPLKIHECNISCPNPLPFREYRPISQGVSDLVGLPNQICLQKTTSTILKPRLISYTLPINTREGVCITDPLLAVDNGFFAYSHLEKIGSCTRGIAKQRIIGVGEVLDRGDKVPSMFMTNVWTPPNPSTIHHCSSTYHEDFYYTLCAVSHVGDPILNSTSWTESLSLIRLAVRPKSDSGDYNQKYIAITKVERGKYDKVMPYGPSGIKQGDTLYFPAVGFLPRTEFQYNDSNCPIIHCKYSKAENCRLSMGVNSKSHYILRSGLLKYNLSLGGDIILQFIEIADNRLTIGSPSKIYNSLGQPVFYQASYSWDTMIKLGDVDTVDPLRVQWRNNSVISRPGQSQCPRFNVCPEVCWEGTYNDAFLIDRLNWVSAGVYLNSNQTAENPVFAVFKDNEILYQVPLAEDDTNAQKTITDCFLLENVIWCISLVEIYDTGDSVIRPKLFAVKIPAQCSES
stoichiometry N (cross-linking): 4

B2: Cedar virus attachment glycoprotein (CedV G), full length, S-tagged (natural protein)
chain: MLSQLQKNYLDNSNQQGDKMNNPDKKLSVNFNPLELDKGQKDLNKSYYVKNKNYNVSNLLNESLHDIKFCIYCIFSLLIIITIINIITISIVITRLKVHEENNGMESPNLQSIQDSLSSLTNMINTEITPRIGILVTATSVTLSSSINYVGTKTNQLVNELKDYITKSCGFKVPELKLHECNISCADPKISKSAMYSTNAYAELAGPPKIFCKSVSKDPDFRLKQIDYVIPVQQDRSICMNNPLLDISDGFFTYIHYEGINSCKKSDSFKVLLSHGEIVDRGDYRPSLYLLSSHYHPYSMQVINCVPVTCNQSSFVFCHISNNTKTLDNSDYSSDEYYITYFNGIDRPKTKKIPINNMTADNRYIHFTFSGGGGVCLGEEFIIPVTTVINTDVFTHDYCESFNCSVQTGKSLKEICSESLRSPTNSSRYNLNGIMIISQNNMTDFKIQLNGITYNKLSFGSPGRLSKTLGQVLYYQSSMSWDTYLKAGFVEKWKPFTPNWMNNTVISRPNQGNCPRYHKCPEICYGGTYNDIAPLDLGKDMYVSVILDSDQLAENPEITVFNSTTILYKERVSKDELNTRSTTTSCFLFLDEPWCISVLETNRFNGKSIRPEIYSYKIPKYC
notes: source: BSR-T7/5, transfected, on cells; precipitated from lysate with S protein agarose; not shown: S-tag, N-terminal, kept
stoichiometry N (cross-linking): 4
